PMC6994669 (Nature Communications, 2020)

T1: mouse CASK N-terminal kinase domain (residues 1–323) fused with the N-terminal His6-tag (mouse, UniProt O70589 1-323)
T1 construct: mouse CASK (calcium/calmodulin-dependent serine kinase), N-terminal kinase domain, residues 1-323; Cloned into pET21a, the same vector as the C-terminally tagged PTPδ D2-His6, yet the methods call this tag N-terminal; also called His6-CASK; N-terminal kinase domain of CASK; not shown: His6, N-terminal, kept
T1 sequence (looked up): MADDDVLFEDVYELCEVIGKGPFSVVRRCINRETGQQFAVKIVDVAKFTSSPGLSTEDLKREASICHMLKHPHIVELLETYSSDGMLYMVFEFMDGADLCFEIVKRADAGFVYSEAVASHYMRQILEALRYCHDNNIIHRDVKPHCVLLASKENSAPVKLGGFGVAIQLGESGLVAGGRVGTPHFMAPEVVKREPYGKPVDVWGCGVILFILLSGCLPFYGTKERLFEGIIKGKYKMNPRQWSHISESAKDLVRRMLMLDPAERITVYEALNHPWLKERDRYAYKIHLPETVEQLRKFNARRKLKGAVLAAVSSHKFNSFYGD

B1: mouse Liprin-α3 tSAM (residues 808–1114) (domain or fragment)
chain: not shown
notes: mouse Liprin-α3, tandem SAM domain (αN, SAM1-SAM3), residues 808-1114; also called WT; source: E. coli Rosetta (DE3), purified (Glutathione Sepharose, Resource Q, GST cleaved off by HRV3c protease, Superdex 200); not shown: GST, N-terminal, cleaved
B2: PTPδ D2-His6 Y1506A (domain or fragment)
chain: NTEVPARNLYAYIQKLTQIETGENVTGMELEFKRLASSKAHTSRFISANLPCNKFKNRLVNIMPYESTRVCLQPIRGVEGSDYINASFLDGYRQQKAYIATQGPLAETTEDFWRMLWEHNSTIVVMLTKLREMGREKCHQYWPAERSARYQYFVVDPMAEYNMPQYILREFKVTDARDGQSRTVRQFQFTDWPEQGVPKSGEGFIDFIGQVHKTKEQFGQDGPISVHCSAGVGRTGVFITLSIVLERMRYEGVVDIFQTVKMLRTQRPAMVQTEDQYQFCYRAALEYLGSFDHAAT
B3: PTPδ D2-His6 F1399A (domain or fragment)
chain: NTEVPARNLYAYIQKLTQIETGENVTGMELEFKRLASSKAHTSRFISANLPCNKFKNRLVNIMPYESTRVCLQPIRGVEGSDYINASFLDGYRQQKAYIATQGPLAETTEDFWRMLWEHNSTIVVMLTKLREMGREKCHQYWPAERSARYQYFVVDPMAEYNMPQYILREFKVTDARDGQSRTVRQAQFTDWPEQGVPKSGEGFIDFIGQVHKTKEQFGQDGPISVHCSAGVGRTGVFITLSIVLERMRYEGVVDIFQTVKMLRTQRPAMVQTEDQYQFCYRAALEYLGSFDHYAT
B4: PTPδ D2-His6 L1380A (domain or fragment)
chain: NTEVPARNLYAYIQKLTQIETGENVTGMELEFKRLASSKAHTSRFISANLPCNKFKNRLVNIMPYESTRVCLQPIRGVEGSDYINASFLDGYRQQKAYIATQGPLAETTEDFWRMLWEHNSTIVVMLTKLREMGREKCHQYWPAERSARYQYFVVDPMAEYNMPQYIAREFKVTDARDGQSRTVRQFQFTDWPEQGVPKSGEGFIDFIGQVHKTKEQFGQDGPISVHCSAGVGRTGVFITLSIVLERMRYEGVVDIFQTVKMLRTQRPAMVQTEDQYQFCYRAALEYLGSFDHYAT
B5: PTPδ D2-His6 D1504A (domain or fragment)
chain: NTEVPARNLYAYIQKLTQIETGENVTGMELEFKRLASSKAHTSRFISANLPCNKFKNRLVNIMPYESTRVCLQPIRGVEGSDYINASFLDGYRQQKAYIATQGPLAETTEDFWRMLWEHNSTIVVMLTKLREMGREKCHQYWPAERSARYQYFVVDPMAEYNMPQYILREFKVTDARDGQSRTVRQFQFTDWPEQGVPKSGEGFIDFIGQVHKTKEQFGQDGPISVHCSAGVGRTGVFITLSIVLERMRYEGVVDIFQTVKMLRTQRPAMVQTEDQYQFCYRAALEYLGSFAHYAT

Tests used:
[1] = target: T1, mouse CASK N-terminal kinase domain …; assay: pull-down; GST pull-down (Fig. 5c): Liprin-α3 tSAM and/or His6-CASK mixed with GST-PTPδ D2 at equimolar ratio (20 µM) in PBS with 0.1% Triton X-100, then immobilised on Glutathione Sepharose FF; eluted with glutathione; SDS-PAGE, Coomassie; details: both partners purified
[2] = target: B1; assay: SPR; Biacore T200, 25 °C, 10 mM Hepes-NaOH pH 7.5, 150 mM NaCl, 0.005% Tween-20; wild-type or mutant PTPδ D2-His6 amine-coupled on a CM5 chip; wild-type or mutant Liprin-α3 tSAM injected, twofold dilutions from 40 µM to 39 nM; equilibrium KD; details: both partners purified

Binder	binding result [1]	Kd [2] [µM]
B1	binds	
B2		11.4
B3		32
B4		> 40
B5		18
